Assay results reported in patent US20140030245.

Molecular target: T1, Myc-tagged Chk1 C-terminal fragment C5, O14757
T1 chain: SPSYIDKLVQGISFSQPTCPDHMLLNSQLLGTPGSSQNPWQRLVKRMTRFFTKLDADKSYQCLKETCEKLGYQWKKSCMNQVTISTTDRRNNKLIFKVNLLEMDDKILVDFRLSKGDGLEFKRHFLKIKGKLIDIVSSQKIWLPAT

B1: endogenous Chk1 (protein)
chain: MAVPFVEDWDLVQTLGEGAYGEVQLAVNRVTEEAVAVKIVDMKRAVDCPENIKKEICINKMLNHENVVKFYGHRREGNIQYLFLEYCSGGELFDRIEPDIGMPEPDAQRFFHQLMAGVVYLHGIGITHRDIKPENLLLDERDNLKISDFGLATVFRYNNRERLLNKMCGTLPYVAPELLKRREFHAEPVDVWSCGIVLTAMLAGELPWDQPSDSCQEYSDWKEKKTYLNPWKKIDSAPLALLHKILVENPSARITIPDIKKDRWYNKPLKKGAKRPRVTSGGVSESPSGFSKHIQSNLDFSPVNSASSEENVKYSSSQPEPRTGLSLWDTSPSYIDKLVQGISFSQPTCPDHMLLNSQLLGTPGSSQNPWQRLVKRMTRFFTKLDADKSYQCLKETCEKLGYQWKKSCMNQVTISTTDRRNNKLIFKVNLLEMDDKILVDFRLSKGDGLEFKRHFLKIKGKLIDIVSSQKVWLPAT
In the case of B1, the “phosphorylation of endogenous Chk1 proteins (immunoblot, HeLa)” value is reported as “overexpression of the C5 fragment and to a lesser extent, the entire C-terminus, induced strong phosphorylation of endogenous Chk1 proteins” and the “phosphorylation of endogenous Chk1 under normal growth conditions (immunoblot, HEK293T)” value is reported as “expression of the C5 fragment, and to a lesser extent, the C6 fragment, but not other small fragments, induced phosphorylation of endogenous Chk1 under normal growth conditions”.
